From patent US20230083243A1 (VEGA THERAPEUTICS, published 2023)

T1: recombinant heavy chain Protein S (human, UniProt P07225 42-296)
T1 construct: Fragment of Protein S spanning amino acids 42-296, expressed and purified from HEK293 cells; also called Protein S heavy chain; heavy chain of Protein S
T1 sequence: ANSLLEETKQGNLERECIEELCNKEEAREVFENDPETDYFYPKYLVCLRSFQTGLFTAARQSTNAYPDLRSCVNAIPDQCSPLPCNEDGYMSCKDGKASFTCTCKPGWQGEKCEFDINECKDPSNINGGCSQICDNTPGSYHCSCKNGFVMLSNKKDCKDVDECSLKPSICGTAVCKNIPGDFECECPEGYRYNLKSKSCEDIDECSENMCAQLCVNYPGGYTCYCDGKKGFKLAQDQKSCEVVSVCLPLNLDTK

T2: human Protein S (human, UniProt P07225 42-676)
T2 construct: also called ProS; ProS1
T2 sequence: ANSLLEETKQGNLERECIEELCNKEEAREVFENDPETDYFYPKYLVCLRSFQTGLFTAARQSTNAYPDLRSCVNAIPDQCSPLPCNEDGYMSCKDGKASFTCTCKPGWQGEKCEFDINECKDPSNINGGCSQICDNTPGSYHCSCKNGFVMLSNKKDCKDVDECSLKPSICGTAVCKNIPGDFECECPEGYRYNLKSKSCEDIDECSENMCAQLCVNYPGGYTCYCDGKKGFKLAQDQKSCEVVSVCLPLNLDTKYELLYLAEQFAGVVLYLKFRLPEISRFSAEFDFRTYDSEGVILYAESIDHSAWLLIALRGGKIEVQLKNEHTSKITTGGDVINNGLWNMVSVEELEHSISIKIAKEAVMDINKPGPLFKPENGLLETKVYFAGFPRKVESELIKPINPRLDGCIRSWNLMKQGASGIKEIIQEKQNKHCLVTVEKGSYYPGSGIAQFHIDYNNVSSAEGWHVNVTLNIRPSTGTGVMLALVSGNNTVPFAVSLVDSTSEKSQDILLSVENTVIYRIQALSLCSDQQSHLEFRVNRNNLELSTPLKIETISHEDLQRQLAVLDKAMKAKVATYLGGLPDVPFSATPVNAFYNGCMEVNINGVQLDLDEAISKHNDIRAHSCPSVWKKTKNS

B1: Antibody 33 (antibody, V domains shown)
VH: QVQLQQSGPGLVKPSQTLSLTCAISGDSVSNNNAAWNWIRQSPSRGLEWLGGTYYRSKWYNDYAVSVKSRIIINPVTSKNQFSLQLNSVTPEDTAVYYCARGSSWYRFFDYWGQGTLVTVSS
VL: EIVLTQSPGTLSLSPGERATLSCRASQSVGSSYLAWYQQKPGQAPRLLISGASGRATGIPDRFSGSGSGTDFTLTISRLEPEDFTVYYCQQYGSSPYTFGQGTKLEIK
notes: Human variable region with rat Fc
B2: Antibody 13 (antibody, V domains shown)
VH: QVQLVQSGAEVKKPGSSVKVSCKVSGGTFSSYSISWVRQAPGQGLEWMGGIIPIFGTTNYAQKFQGRVTITADESTSTAYMDLSSLKSEDTAMYYCEGGRVGADFDYWGQGTLVTVSS
VL: SSDLTQGPAVSVALGQTVRITCQGDSLRNYYASWYQQKPGQAPVPVIYGKNDRPSGIPDRFSGSISGNTASLTITGAQAEDEAHYYCNSRDSSGNHVVFGGGTKLTVL
notes: as for B1
B3: Antibody 15 (antibody, V domains shown)
VH: EVQLVESGGGLVQPGRSLRLSCAASGFTFDDYAMHWVRQAPGKGLEWVSGITWNSGNIGYADSVKGRFTISRDNAKNSLYLHMNSLRIEDTAFYYCAKGRAVSDTFDIWGQGTMVTVSS
VL: SYELNQPPSVSVSPGQTASITCSGDKLGDKYASWYQQKPGQSPVVAIYQNSKRPSGIPERFSASNSGNTATLTISGTQALDEADYYCQAWDSSTWVFGGGTKLTVL
notes: as for B1
B4: Antibody 14 (antibody, V domains shown)
VH: QVQLQESGPGLVKPSQTLSLTCTVSGGSITSDGYHWSWIRQYPGKGLDWIGYIYYTGNTYYNPSLKSRVTISVGTSQNQFSLKLISVTAADTAVYYCARRLSTGPYFDYWGQGTLVTVSS
VL: QSALTQPASVSGSPGQSITISCTGTSSDVGGYEFVSWYQHHPGKAPKLMIYDVSSRPSGVSNRFSGSKSGNTASLTISGLQAEDEADYYCSSYTRSSTVVFGGGARLTVL
notes: as for B1
B5: Antibody 16 (antibody, V domains shown)
VH: QVQLVESGGGVVQPGRSLRLSCAASGFTFSTYGFHWVRQPPGKGLEWVAVIYYDGINKYYADSVKGRFTISRDNSKNTLFLQMNSLRAEDTAVYYCAESDLDYWGQGTLVTVSS
VL: EIVLTQSPATLSLSPGERATLSCRASQSVSIYLAWYQQKPGQAPRLLIYDASNRATGIPARFSGSGSGTDFTLTISSLEPEDFAVYYCQQRSNWPLTFGPGTKVDIK
notes: as for B1
B6: Antibody 18 (antibody, V domains shown)
VH: QVQLQESGPGLVKPSETLSLTCTVSGGSISNYYWNWIRQPPGKGLEWIGYIYYIGITDYNPSLKSRVTISVDTSKNQFSLKVTSVTAADTAVYYCAALSGDHAFDIWGQGTLVTVSS
VL: not shown
notes: as for B1
B7: Antibody 19 (antibody, V domains shown)
VH: QLQLQESGPGLVKPSETLSLTCTVSGGSISSSSYYWGWIRQPPGKGLEWIGNIYYSGNTYYNPSLKSRVTISVDTSKNQFSLKLSSMTAADTAVYYCARCSGYGYSSGRSYFDYWGQETLVTVSS
VL: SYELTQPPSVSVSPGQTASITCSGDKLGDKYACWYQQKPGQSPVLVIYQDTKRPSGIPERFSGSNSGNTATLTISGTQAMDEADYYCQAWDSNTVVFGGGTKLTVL
B8: Antibody 44 (antibody, V domains shown)
VH: QVQLVQSGAEVKKPGASVKVSCKASGYTFTSYYIHWVRQAPGQGLEWMGVTSPSGRSTSFAQKFQGRVTMTRDTSTSAVYMDLDSLRSEDTAVYYCARGGVTIHLERRGYFDYWGQGTLVIVSS
VL: not shown
notes: as for B1
B9: Antibody 21 (antibody, V domains shown)
VH: QVQLVQSGAEVKKPGSSVKVSCKASGDTFSNHAINWVRQAPGQGLEWMGGYIPIFGTTNSAQKFRGRVTITADKSTNTAYMALSSLRSEDTAVYYCARGGLAGSHYKNYYYDGMDVWGQGTTVTVSS
VL: not shown
notes: as for B1
B10: Antibody 23 (antibody, V domains shown)
VH: QVQLVQSGAEVKKPGASVKVSCKSSGHTFTGYYMHWVRQAPGQGLEWMGWINPNSGDTNYAQKFQGRVTMTRDTSISTAYMEMSRLRSDDTAVYYCARDSQILWFGELGYWGQGTLVTVSS
VL: QAVVTQESALTTSPGETVTLTCRSSTGAVTASNYANWVQEKPDHLFTGLIGSTNNRAPGVPARFSGSLIGDKAALTITGAQTEDEAIYFCALWYSDHFVFGGGTKLTVL
notes: as for B1
B11: Antibody 24 (antibody, V domains shown)
VH: QVQLQESGPGLVKPSETLSLTCGVSGGSISSTNWWSWVRQPPGKGLEWIGEIYQTGSTDYDPSLKSRVTISIDKSKNQFSLKLYSVTAADTAVYYCARRFGELDYWGQGTLVTVSS
VL: EIVMTQSPATLSVSPGERATLSCRASQSVTSNLAWYQQKPGQAPRLLIYDASTRATGIPARFSGSGSGTEFTLTISSLQSEDFAIYYCQQYNNWPTFGQGTRLEIK
notes: as for B1
B12: Antibody 20 (antibody, V domains shown)
VH: QVQLQESGPGLVKPSETLSLTCAVSGYSISSGYYWGWIRQPPGKGLDWIGSIYYSGSTYYNPSLKSRVTISVDTSKNQISLKLSSVTAADTAVYYCATTYSDIVTGYYNDAFDIWGQGTMVTVSS
VL: EIVMTQSPATLSVSPGERATLSCRASQRINSNLAWYQQKPGQAPRLLIYGASTRATGIPARFSGSGSGTEFTLTISSLQSEDFAAYYCQQYDNWPLTFGGGTKVEIK
notes: as for B1
B13: Antibody 31 (antibody, V domains shown)
VH: QVQLQESGPGLVKPSETLSLTCTVSGGSISGNYWSWIRQPPGKGLEWIGYIYYSGSTNYNPSLKSRVTISVDTSKNQFSLKLSSVTAADTAVYYCARDLDYFTWGAYSDWYFDLWGRGTLVTVSS
VL: DIQMTQSPSSLSASVGDRVTITCRASQSISTFLNWYQQKPGKAPKLLIYATSSLRSGVPSRFSGSGSGTDFTLTISSLQPEDFAIYYCQQSYSTPRTFGQGTQVEIK
notes: as for B1

What follows are binders tested against T1, recombinant heavy chain Protein S (assay: ELISA; plate coated with recombinant Protein S heavy chain; 1 mM CaCl2).
Protocol: (§1) Binding to the heavy chain of Protein S was determined using an ELISA based method. Briefly, high binding ELISA plates were coated with recombinant heavy chain Protein S expressed and purified from HEK293 cells. The “heavy chain” of Protein S represents a fragment of Protein S spanning amino acids 42-296. The coated plate was blocked with 1% casein solution. Then, buffer containing […] of antibody was applied to the well with buffer containing 1 mM calcium chloride.

Point of comparison: B4, “Binding to heavy chain (OD)” value 2.03 OD. Against it:
- B1 — lower, 0.11 OD
- B2 — lower, 1.63 OD
- B3 — lower, 1.78 OD
- B5 — lower, 1.67 OD
- B6 — lower, 0.6 OD
- B7 — lower, 0.61 OD
- B8 — lower, 0.48 OD
- B9 — lower, 1.58 OD
- B10 — lower, 0.1 OD
- B11 — lower, 0.71 OD
- B12 — lower, 1.54 OD
- B13 — lower, 0.13 OD

What follows are binders tested against T1, recombinant heavy chain Protein S (assay: ELISA on recombinant Protein S heavy chain).
Protocol: as §1

B1: no binding.
B10: no binding.
B13: no binding.

The binders below were run against T2, human Protein S (assay: ELISA; plate coated with human Protein S; 1 µg/ml antibody; 1 mM EDTA).
Protocol: (§2) Calcium dependence of binding was determined using an ELISA based method. Briefly, high binding ELISA plates were coated with human Protein S. Then, buffer containing 1 μg/ml of antibody was applied to the well with either buffer containing 1 mM EDTA or 1 mM calcium chloride.

Point of comparison: B5, “Binding to Protein S in EDTA (OD)” value 0.17 OD. Against it:
- B1 — higher, 0.2 OD
- B2 — higher, 0.48 OD
- B3 — lower, 0.07 OD
- B4 — higher, 0.75 OD
- B6 — lower, 0.1 OD
- B7 — lower, 0.06 OD
- B8 — higher, 0.89 OD
- B9 — higher, 1.4 OD
- B10 — higher, 0.26 OD
- B11 — lower, 0.06 OD
- B12 — higher, 0.26 OD
- B13 — higher, 0.63 OD

These binders were tested against T2, human Protein S (assay: ELISA; plate coated with human Protein S; 1 µg/ml antibody; 1 mM calcium chloride).
Protocol: as §2

Point of comparison: B1, “Binding to Protein S in CaCl2 (OD)” value 1.23 OD. Against it:
- B2 — higher, 1.77 OD
- B3 — higher, 1.86 OD
- B4 — higher, 2.03 OD
- B5 — higher, 1.95 OD
- B6 — higher, 1.96 OD
- B7 — higher, 1.68 OD
- B8 — lower, 1.17 OD
- B9 — higher, 1.92 OD
- B10 — lower, 0.57 OD
- B11 — higher, 1.72 OD
- B12 — higher, 1.93 OD
- B13 — lower, 1.03 OD

Each binder was assayed against T2, human Protein S (assay: cell-based or functional assay).

Point of comparison: B6, “IC50 APC” value 12.8 nM. Against it:
- B1 — 4.5-fold higher, 58.1 nM
- B2 — 2.4-fold lower, 5.3 nM
- B3 — within 1.5-fold, 13.5 nM
- B4 — within 1.5-fold, 8.76 nM
- B5 — within 1.5-fold, 14 nM
- B7 — 6.3-fold higher, 81.2 nM
- B8 — 38-fold higher, 492 nM
- B9 — 2.1-fold lower, 6.23 nM
- B11 — within 1.5-fold, 17.9 nM
- B12 — the same, 12.8 nM
- B13 — 7.7-fold higher, 99 nM

Point of comparison: B4, “IC50 TFPI” value 73.3 nM. Against it:
- B1 — 2.2-fold lower, 34 nM
- B2 — within 1.5-fold, 51.1 nM
- B3 — within 1.5-fold, 77.3 nM
- B5 — 1.6-fold lower, 46.3 nM
- B7 — within 1.5-fold, 105 nM
- B10 — lower, < 4.4 nM
- B11 — within 1.5-fold, 73.6 nM
